Test [1] addresses CB1R (type-1 cannabinoid receptor) (UniProt P21554). Description: BRET saturation, CB1R-RLuc and GFP-GAP43. Particulars: reference: GFP-GAP43 wild type; sites S41. A general note: Bioluminescence resonance energy transfer reports proximity on the nanometre scale.
In another test the target is T1, RLuc-tagged CB1R (UniProt P21554 1-472).
T1 construct: type-1 cannabinoid receptor (CB1R); also called CB1R-RLuc; source: HEK293T, transfected, in live cells
Description: FRET or BRET; BRET saturation in live HEK293T cells expressing CB1R-RLuc and increasing amounts of GFP-GAP43 forms; 3 independent experiments. Particulars: partners not purified.

Test [2] addresses T2, hGAP43 (purified, unlabeled human growth-associated protein of 43 kDa) (human, UniProt P17677 1-238).
T2 construct: growth-associated protein of 43 kDa (GAP43, neuromodulin), human; also called unlabeled GAP43; neuromodulin; source: purified (details in Supplementary Methods)
T2 sequence (looked up): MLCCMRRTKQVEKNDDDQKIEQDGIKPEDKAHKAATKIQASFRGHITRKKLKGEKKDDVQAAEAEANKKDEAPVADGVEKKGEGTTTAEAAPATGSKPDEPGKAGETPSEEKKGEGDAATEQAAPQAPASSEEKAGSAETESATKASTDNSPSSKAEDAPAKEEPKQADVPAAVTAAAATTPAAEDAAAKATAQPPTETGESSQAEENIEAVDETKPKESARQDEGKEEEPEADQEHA
Description: fluorescence polarisation; fixed concentration of 5-IAF-labeled hCB1R-CTD, increasing concentrations of unlabeled hGAP43; 3 independent experiments. Particulars: both partners purified. A general note: Polarisation of emitted light reports the rotation of a fluorescent probe.

As for “GAP43 (growth-associated protein of 43 kDa; neuromodulin) (from UniProt P17677) GFP-GAP43 S41D”, the “other: BRET50 (RLuc/GFP ratio giving half-maximal BRET)” value in test [1] is reported as “stronger; reference 15.18 ± 4.53”.

B1: GFP-GAP43(WT) (natural protein, UniProt P17677 1-238, looked up)
chain: MLCCMRRTKQVEKNDDDQKIEQDGIKPEDKAHKAATKIQASFRGHITRKKLKGEKKDDVQAAEAEANKKDEAPVADGVEKKGEGTTTAEAAPATGSKPDEPGKAGETPSEEKKGEGDAATEQAAPQAPASSEEKAGSAETESATKASTDNSPSSKAEDAPAKEEPKQADVPAAVTAAAATTPAAEDAAAKATAQPPTETGESSQAEENIEAVDETKPKESARQDEGKEEEPEADQEHA
notes: growth-associated protein of 43 kDa (GAP43), wild type; In the co-IP and DMR experiments the text writes GAP43(WT) without GFP; source: HEK293T, transfected, in cells or lysate
On to B1, for which the “BRET50 (RLuc/GFP ratio that gives half-maximal BRET effect)” value with RLuc-tagged CB1R is 15.2.

B2: GFP-GAP43(S41D) (natural protein, UniProt P17677 1-238, looked up)
chain: MLCCMRRTKQVEKNDDDQKIEQDGIKPEDKAHKAATKIQADFRGHITRKKLKGEKKDDVQAAEAEANKKDEAPVADGVEKKGEGTTTAEAAPATGSKPDEPGKAGETPSEEKKGEGDAATEQAAPQAPASSEEKAGSAETESATKASTDNSPSSKAEDAPAKEEPKQADVPAAVTAAAATTPAAEDAAAKATAQPPTETGESSQAEENIEAVDETKPKESARQDEGKEEEPEADQEHA
notes: growth-associated protein of 43 kDa (GAP43) with the phospho-mimetic point mutation S41D; In the co-IP and DMR experiments the text writes GAP43(S41D) without GFP; also called phospho-mimetic GAP43; source: HEK293T, transfected, in cells or lysate
In the case of B2, the “BRET50 (RLuc/GFP ratio that gives half-maximal BRET effect)” value with RLuc-tagged CB1R turned out to be 7.08.

B3: 5-(iodoacetamido)fluorescein-labeled hCB1R-CTD (domain or fragment, human, UniProt P21554 408-472, looked up)
chain: FRSMFPSCEGTAQPLDNSMGDSDCLHKHANNAASVHRAAESCIKSTVKIAKVTMSVSTDTSAEAL
modifications: also: 5-(iodoacetamido)fluorescein label, position not given here
notes: type-1 cannabinoid receptor (CB1R), human, C-terminal intracellular domain, amino acids 408-472; protein expression and purification are in the Supplementary Methods; also called 5-IAF-labeled CB1R-CTD; source: purified (recombinant; details in Supplementary Methods)
Turning to B3, the affinity in test [2], expressed as Kd, was 38.2 µM.

The values above are taken from article PMC10121561, “Control of a hippocampal recurrent excitatory circuit by cannabinoid receptor-interacting protein Gap43” (Nature Communications, 2023).
